Target: mitoribosomal protein uL12m (39S subunit, L10-L12 stalk) (human (endogenous in HEK293S GnTI), UniProt P52815 37-198)
Test: cryo-EM structure; model PoTC (150 nM 55S mitoribosomes + 50 uM puromycin, 10 min 37 °C) with 15 uM RRFmt (5 min 37 °C), then 5 uM EF-G2mt + 200 uM GMPPCP (5 s, 30 s, 2 min, 37 °C), HEPES polymix buffer pH 7.5; single-particle classes: Class I 55S•RRFmt, Class II 55S•RRFmt•EF-G2mt•GMPPCP, Class III 39S•RRFmt•EF-G2mt•GMPPCP
Conditions: both partners purified

B1: human EF-G2mt (recycling-specific mitochondrial homolog of elongation factor G) (natural protein)
chain: MLTNLRIFAMSHQTIPSVYINNICCYKIRASLKRLKPHVPLGRNCSSLPGLIGNDIKSLHSIINPPIAKIRNIGIMAHIDAGKTTTTERILYYSGYTRSLGDVDDGDTVTDFMAQERERGITIQSAAVTFDWKGYRVNLIDTPGHVDFTLEVERCLRVLDGAVAVFDASAGVEAQTLTVWRQADKHNIPRICFLNKMDKTGASFKYAVESIREKLKAKPLLLQLPIGEAKTFKGVVDVVMKEKLLWNCNSNDGKDFERKPLLEMNDPELLKETTEARNALIEQVADLDDEFADLVLEEFSENFDLLPAEKLQTAIHRVTLAQTAVPVLCGSALKNKGIQPLLDAVTMYLPSPEERNYEFLQWYKDDLCALAFKVLHDKQRGPLVFMRIYSGTIKPQLAIHNINGNCTERISRLLLPFADQHVEIPSLTAGNIALTVGLKHTATGDTIVSSKSSALAAARRAEREGEKKHRQNNEAERLLLAGVEIPEPVFFCTIEPPSLSKQPDLEHALKCLQREDPSLKVRLDPDSGQTVLCGMGELHIEIIHDRIKREYGLETYLGPLQVAYRETILNSVRATDTLDRTLGDKRHLVTVEVEARPIETSSVMPVIEFEYAESINEGLLKVSQEAIENGIHSACLQGPLLGSPIQDVAITLHSLTIHPGTSTTMISACVSRCVQKALKKADKQVLEPLMNLEVTVARDYLSPVLADLAQRRGNIQEIQTRQDNKVVIGFVPLAEIMGYSTVLRTLTSGSATFALELSTYQAMNPQDQNTLLNRRSGLT
notes: mitochondrial elongation factor G2 (EF-G2mt), human, 87 kD; contact residues up to Leu778 are printed; Cloned into pGEX6.1; also called EF-G2mt-GMPPCP; source: Rossetta (pLysS + RARE) cells, purified (GSTrap HP, GST cleaved with 3C protease, HiTrap Q HP)
B1: binds.

Reference: paper PMC8203779, “Distinct mechanisms of the human mitoribosome recycling and antibiotic resistance” (Nature Communications, 2021)
